Assay results reported in paper PMC9848473 (2023).
Values belong to the binder of their own block, whether it stands above or below them.

Tests used:
Test in all cases: ITC
RelBs^NTD K290G = RelBs^NTD K290G (Bacillus subtilis)
RelBs^NTD Y279A = RelBs^NTD Y279A (Bacillus subtilis)
DarB E74G/R75G = DarB E74G/R75G (Bacillus subtilis, UniProt O31698 1-147, E74G | R75G)
DarB^E34R = DarB^E34R (Bacillus subtilis, UniProt O31698 1-147, E34R)

Kd (RelBs^NTD K290G): 4 µM | Kd (RelBs^NTD Y279A): 45.1 µM
B1: Bacillus subtilis DarB (natural protein)
chain: MISLQSDQLLEATVGQFMIEADKVAHVQVGNNLEHALLVLTKTGYTAIPVLDPSYRLHGLIGTNMIMNSIFGLERIEFEKLDQITVEEVMLTDIPRLHINDPIMKGFGMVINNGFVCVENDEQVFEGIFTRRVVLKELNKHIRSLNK

Kd (DarB E74G/R75G): 8.9 µM | Kd (DarB^E34R): 10.6 µM
B2: Bacillus subtilis Rel N-terminal domain region (RelBs^NTD; residues 1 to 373) (domain or fragment)
chain: not shown
